From US20260234236A1 (INTERVET, published 2026) come the findings set out here.

The chains are these.
B1: IL13 P4A-2 E11 scFv (scFv)
scFv: QSALTQTASVSGSLGQRVTISCTGATRNVGTVGVTWYQQVPGKAPKLLLFSNGDRPSWVPDRFSGSTSGYSATLIINGVQAEDEAMYHCQSFDTMPDAHYMFGSGTQLTVLGGGSSRSSSSGGGGSGGGGELTLQESGPGLVKPSQTLSLTCVVSGASVTSTNYWNWIRQRPGRGLEWMGYWTGSTKYNPAFQGRISITADTAKNQFSLQLSSMTTEDTAVYYCARSSTWINGFDYWGQGTLVTVSSESPSPPNLTSGQAGQ
notes: scFv purified from E. coli periplasm on Ni-NTA
B2: IL13 P2-1 H5 scFv (scFv)
scFv: QSVLNQPPSVSAALGQRVTISCTGTNTNIGSGYSVQWYQQLPGESPKPIIYGSSNRPSGVPARFSGSKSGSTGTLTITGIQAEDEADYHCQSYDDSLDGHAVFGGGTQLTVLGGGSSRSSSSGGGGSGGGGEVQLVQSGGDLVKPGGSLRLSCVASGFTFSGYDMSWVRQSPGKGLQWVATVWSDGNTIYYADAVKGRFTISRDNAKNTVYLQMNSLRAEDTAMYYCAKSPYCTDDYCPWGDYLDLWGQGTLVTVSSASTTAPSVTSGQAGQ
notes: as for B1
B3: IL4 P4-1 G3 scFv (scFv)
scFv: QSVLNQLPSLSMNMGETATFTCEGDNIGHKYVNWYQQKPGQAPVLTIYEDNKRPSGIPERFSGSNSGNTATLTISGARAEDEADYYCESEVSTGIVFGGGTHLTVLGGGSSRSSSSGGGGSGGGGEVQLVESGGDLVKPGGSLRLSCVASGFTFSSYDMDWVRQAPGKGLEWLSEISTNGDRTHYADAVKGRFAISRDNAKNTVYLQMNSLRAEDTAIYYCVRDGYEYLAFDYWGQGTLVTVSSASTTAPSVTSGQAGQ
notes: as for B1
B4: IL4 P3-1 D7 scFv (scFv)
scFv: QSMLTQPASVSGSLGQRVAISCSGSTNNIGIFGATWYQHLPGKAPKFLLYSDGNRPSGVPDRFSGSDSGNSVTLMITALQAEDEADYYCQSFDTTLGAYVFGSGTQLTILGGGSSRSSSSGGGGSGGGGEVQLVQSGGDLVKPGGSLRLSCVASGFAFNGYDMDWVRLAPGKGLQWLSEISSSGSPTYYADAVEGRFTISRDNAKNTLYLQMDSLRAEDTAVYYCARAGEYTYGYEGYYFDYWGQGTLVTVSSASTTAPSVTSGQAGQ
notes: as for B1
B5: IL4 P3-1 B10 scFv (scFv)
scFv: QSVLTQPTSVSAALGQRVTISCTGSNANIGSVYDVQWYQQLPGKSPKTIIYGNTHRPSGVPVRFSGSKSGSTATLTITGIQAEDEADYYCQSYDATLHYVFGSGTQLTVLGGGSSRSSSSGGGGSGGGGEVQLVESGGDLVKPGGSLRLSCVASGFTFSNYDMSWVRQAPGKGLQWVSTISYDGNNTYYSDAVKGRFTISRDNARNTLYLQMNSLRAEDTAVYYCAKEFDIPWDNFDYWGQGTLVTVSSASTTAPSVTSGQAGQ
notes: as for B1
B6: IL4 P4A-2 D11 scFv (scFv)
scFv: QAVLTQPPSVSAALGQRVTISCSGSTDNVGTVGASWYQHLPGRAPKLLVYIVGDRPSGVPDRFSGSKSGTSATLTITGLQAEDEADYYCSSWDDSLRGIVFGGGTHLTVLGGGSSRSSSSGGGGSGGGGEEQLVEFGGDLVKPGESLRLSCVASGFTFNKYDMSWVRQAPGKGLQWVATVADDESFAYYTDSVKGRFTISRDNAKNTLYLQMNSLRAEDTAMYYCVGKTGSYWDIDFDLWGPGTLVTISSASTTAPSVTSGQAGQ
notes: as for B1
B7: IL4 P4A-1 A4 scFv (scFv)
scFv: SYVLSQPPSVSVTPSETAHITCGGNNIGSKYVQWIRQSAGQAPVTIIYGNTNRPTGIPERFSGANSGNTATLTISGVLAEDEADYYCQVGDTDTTVFGGGTHLTVLGGGSSRSSSSGGGGSGGGGEVQLVESGGDLVKPGGSLRLSCVASGFNFSRYSMSWVRQAPEKGLQLVAAVNSGGSRTWYADAVQGRFTVSRDNAKNTLFLEMSSLKLEDTAMYYCAKDLWSTTIAEYDYWGQGTLVTVSSASTTAPSVTSGQAGQ
notes: as for B1
B8: IL4 P4A-1 E10 scFv (scFv)
scFv: QSVLNQPPSVSAALGQRVTVSCTGTDTNIGSGYDVQWYQQVPGKSPTPIIYGNTNRPSGVPERFSGSKSGNTATLTITGIQAEDEADYYCQSFDDNVDGYVFGSGTQLTILGGGSSRSSSSGGGGSGGGGEVPLVESGGDLVKPGGSLRLSCVASGFTFSDYHMSWVRQAPGKGLQWVADISSSGSTYYADAVKGRFTISRDNAKNTLYLQMNSLRAEDTAVYYCARQWGEFDYWGQGTLVTVSSESPSPPNLTSGQAGQ
notes: as for B1
B9: IL4 P4-1 A10 scFv (scFv)
scFv: QSVLNQLPSVSGSLGQKVTIRCSGNTDNIGMVGAAWYRQVPGEAPKLLLYSDGNRPSGVPDRFSGSDSGRSATLTITGLQPEDEADYYCQSLDPTVPGNYLFGSGTQLTILGGGSSRSSSSGGGGSGGGGEVQLVESGGDLVKPGGSLRLSCVASGFTFSDYDMTWVRQAPGKGLQWVADINNGGSSTTYADAVKGRFTISRDNAKNTLYLQMNSLRAEDTAMYYCAKEGDNTWLSFDSWGQGTLVTVSSESPSPPNLTSGQAGQ
notes: as for B1
B10: IL4 P3-1 C4 5LC scFv (scFv)
scFv: QAVLNQPASVSGSLGQRVTISCSGSTNNIGVVGASWYQQFPGKAPKLLVYSDGDRPSGVPDRFSGSNSGYSDTLTITGLQAEDEADYYCQSFDTTLNAYVFGSGTQLTVLGGGSSRSSSSGGGGSGGGGEVPLVESGGDLVKPGGSLRISCVASGITFNNDDMGWVRQAPGKGLQWLAEISSSGTSTYYADAVKGRFTISRDNAKNTVYLQMNSLKAEDTGVYYCVGEDGYMALGFWGQGTLVTVSSASTTAPSVTSGQAGQ
B11: IL4 P4A-2 G11 scFv (scFv)
scFv: DIVMTQTPLSLSVSPGEPASISCKASQSLLYSDGNTYLYWFRQKPGQSPQRLISLVSNRDAGVPDRFSGSGSGTDFTLRISRVEADDAGVYYCGQGIQDPITFGKGTHLEIKGGSSRSSSSGGGGSGGGGEVPLVESGGDLVKPGGSLRLSCVASGFPFRSYGMNWVRQSPGGGLQWVAGILFDGSATAYADAVRGRFTISRDNAKNTLYLQMNSLRAEDTAVYYCASDDGSYIEAYNWFYYWGQGTLVTVSSASTTAPSVTSGQAGQ
notes: as for B1
B12: IL4 P3-1 B9 scFv (scFv)
scFv: QAVLTQPASVSAALGQRVTISCTGTATNVGGGYDVQWYQQFPGRPPKTIIYGNYNRPSGVPDRFSASTSGTTATLTITGIQVADEADYYCQSFDTTFNGHVFGAGTQLTILGGGSSRSSSSGGGGSGGGGELQLVELGGDLVKPGGSLRLSCVASGFTFSSYGMSWVRQSPGKGLQWVADISSSGSTYYADAVKGRFTISRDNAKSTLYLQMNSLRAEDTAVYYCAKAGYGSYYDFGMDYWGHGTSVFVSSESPSPPNLTSGQAGQ
notes: as for B1
B13: IL4 P4A-1 F10 scFv (scFv)
scFv: QTVVTQEPSLSVSPGGTVTLTCGLSSGSVSTGNYPGWYQQTQGRAPRSIIYDTNSRPSGVPDRFSGSISGNKAVLTITGAQPEDEADYYCSLYTGIAYTDVVFGGGTHLTVLGGGSSRSSSSGGGGSGGGGEVQLVQSGGDLVKPAGSLRLSCVASGFTFNSYAMSWVRQAPGKGLQWVAGINSGGSTTTYADAVKGRFTISRDNAKNTLYLQMNSLRAEDTAVYYCAKDQNSYYPSDTFEYWGQGTLVTVSSESPSPPNLTSGQAGQ
notes: as for B1
B14: IL4 P3-1 A6 scFv (scFv)
scFv: QPVLTQPPSVSAALGQRVTISCNTNIGSPYDVQWYQQLPGKSPKTIIYGNSNRPSGVPVRFSGSKSGSTATLTIAGIQAEDEADYYCQSYDDNVDGYVFGSGTQLTVLGGGSSRSSSSGGGGSGGGGEVPLVESGGDLVKPGGSLRLSCVASGFTFHNYDLSWIRQLPGGGLQWVADIDKSGLTFYADAVKGRFTISRDNAKNTLYLQMNSLRAEDTAVYYCATWPLGSWYTETFEYWGQGTLVTVSSASTTAPSVTSGQAGQ
notes: as for B1

The target of the first assay is T1, Canine IL-13 with C-terminal Avi-HIS tag (canine, biotin label when loaded on SA biosensors (Example 4); site not stated).
T1 construct: also called cIL-13; biotinylated avitag-cIL13
T1 chain: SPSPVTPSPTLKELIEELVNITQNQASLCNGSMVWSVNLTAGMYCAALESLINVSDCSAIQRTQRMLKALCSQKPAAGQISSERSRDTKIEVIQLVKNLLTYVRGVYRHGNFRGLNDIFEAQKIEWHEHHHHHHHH
Put plainly: BLI (OCTET HTX); biotin-cIL-13 on SA biosensors, scFv in solution; 1:1 model. How it is done: (§1) The in vitro binding of anti-canine IL-4 scFv and IL-13 scFv to canine IL-4 and canine IL-13, respectively, was determined by OCTET HTX using SA biosensors and Data Acquisition 12.0 software. First, biotin-labeled antigen (cIL-4 or cIL-13) was loaded onto the pre-rehydrated SA biosensors for 60 seconds (60s) at a concentration of 5 μg/mL. Second, the biosensors were placed into the OCTET Kinetics Buffer (PBS+0.02% Tween20, 0.1% BSA) for the blocking phase for 120s. Third, for the association phase, cIL-4 or cIL-13 antigen loaded biosensors were placed into 2-fold serial dilutions from 500 nM down to 7.8 nM of anti-cIL-4 or anti-cIL-13 scFvs, respectively, in OCTET Kinetics Buffer for 60s. The last well was buffer alone and that sensor was used for reference sensor subtraction. Finally, the biosensors were placed into OCTET Kinetics Buffer for the dissociation phase for 300s. The analysis was performed using Data Analysis 12.0 software and curves were fitted using a 1:1 binding model.
With B1, the Kd (as a rule, the concentration at which binding is half-saturated) stood at 26.8 nM; the koff (in general, the rate constant with which the complex falls apart) came out at 0.00466 s⁻¹; the kon (usually the rate constant with which the complex forms) turned out to be 174000 M⁻¹ s⁻¹.

Regarding B2, the dissociation constant Kd is 9.09 nM, the koff worked out at 0.00291 s⁻¹ and the kon was 321000 M⁻¹ s⁻¹.

In a further assay the target is T2, Canine IL-4 with C-terminal Avi-HIS tag (canine, biotin label when loaded on SA biosensors (Example 4); site not stated).
T2 construct: also called cIL-4; biotinylated avitag-cIL-4
T2 chain: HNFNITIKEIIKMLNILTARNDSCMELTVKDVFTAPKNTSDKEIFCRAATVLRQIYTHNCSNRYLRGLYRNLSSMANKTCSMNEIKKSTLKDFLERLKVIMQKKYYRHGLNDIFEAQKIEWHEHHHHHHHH
Put plainly: BLI (OCTET HTX); biotin-cIL-4 on SA biosensors, scFv in solution; 1:1 model. Here is the method:
as §1
B3 showed a Kd of 3.94 nM, a koff of 0.00247 s⁻¹ and a kon of 594000 M⁻¹ s⁻¹.

Regarding B4, the Kd is 17.5 nM, the koff amounted to 0.00729 s⁻¹ and the kon stood at 391000 M⁻¹ s⁻¹.

Take B5: the Kd was found to be 4.57 nM, the koff was 0.00522 s⁻¹ and the kon came out at 1.14e+06 M⁻¹ s⁻¹.

With B6, the Kd is 4.38 nM, the koff stood at 0.00775 s⁻¹ and the kon was found to be 1.52e+06 M⁻¹ s⁻¹.

Take B7: the affinity, expressed as Kd, was 52 nM; the koff was found to be 0.0373 s⁻¹; the kon came out at 704000 M⁻¹ s⁻¹.

Regarding B8, the Kd was determined as 10.3 nM, the koff came out at 0.00173 s⁻¹ and the kon was determined as 194000 M⁻¹ s⁻¹.

The molecule B9 returned a Kd of 9.92 nM, a koff of 0.011 s⁻¹ and a kon of 954000 M⁻¹ s⁻¹.

As for B10, the Kd was found to be 4.13 nM, the koff was 0.000547 s⁻¹ and the kon was determined as 132000 M⁻¹ s⁻¹.

Turning to B11, the Kd is 8.5 nM, the koff is 0.00117 s⁻¹ and the kon is 137000 M⁻¹ s⁻¹.

Regarding B12, binding was characterised by a dissociation constant (Kd) of 4.5 nM, the koff is 0.00108 s⁻¹ and the kon was found to be 241000 M⁻¹ s⁻¹.

The molecule B13 yielded a Kd of 12.7 nM, a koff of 0.00396 s⁻¹ and a kon of 311000 M⁻¹ s⁻¹.

On to B14, for which binding was put at a Kd of 1.24 nM, the dissociation rate constant (koff) worked out at 0.000272 s⁻¹ and the kon amounted to 219000 M⁻¹ s⁻¹.
